Reference: patent publication US12297265B2, “Antibody and use thereof” (SICHUAN KELUN-BIOTECH BIOPHARMACEUTICAL CO., LTD., priority 2018, dated 2025)
Marks after values point to notes of the source that are not given here.

Legend:
[1] = target: T1, human Claudin18.2 (Homo sapiens, UniProt P56856); assay: Cellular ELISA on NUGC-4 cells; assay type: binding; set-up: cell lines endogenously expressing human Claudin18.2; host or cells: NUGC-4 human gastric cancer cell line
Description: Human Claudin18.2 is a four transmembrane protein and has a complex structure. Cellular ELISA was thus carried out to maintain the structure of Claudin18.2. The stable cell line L929-Claudin 18.2 constructed in Example 1 were used for detection. Specifically, L929-Claudin 18.2 adherent cells were detached by 2 mM EDTA treatment. The cells were resuspended and adjusted to 2×10^5/mL and 100 μL of the resuspension was plated into 96 well plate and incubated overnight at 37° C. The next day, the media was removed, and the plate was washed with PBS once. 100 μL/well 4% formaldehyde was added to the plate. After 30 min of incubation at room temperature, formaldehyde was removed, followed by washing twice with PBS. […] The absorbance at 450 nm was read on a plate reader (MD, SpectraMax M2) and the results were subjected to curve fitting by Graphpad Prism.
(§1) To determine binding affinity of the candidate antibodies to cell lines endogenously expressing human Claudin18.2, FACS analysis was performed to detect human Claudin18.2 expression level on NUGC-4 cells (purchased from Japan JCRB cell bank, catalog number: JCRB0834) which endogenously expresses human Claudin18.2. […] The binding affinity between candidate antibodies and NUGC-4 cells was then determined by Cellular ELISA following the same protocol as above.

[2] = target: T1, human Claudin18.2; assay: FACS positive rate of NUGC-4 cells; assay type: binding; set-up: cell lines endogenously expressing human Claudin18.2; host or cells: NUGC-4 human gastric cancer cell line; settings: NUGC-4 cells endogenously expressing human Claudin18.2, FACS
Description: as §1

[3] = tested on: Ba/F3-Claudin 18.2 cells; assay: ADCC activity on Ba/F3-Claudin 18.2 cells (NK-92MI_mCD16, CytoTox-Glo); assay type: cell-based; settings: Ba/F3-Claudin 18.2 target cells, NK-92MI_mCD16 effector cells, 6h
Description: In order to evaluate the ADCC activity, ten thousand Ba/F3-Claudin18.2 cells were cultured in 40 μl NK-92 media. Antibodies were serially diluted in 10 μl PBS. Fifty thousand NK-92MI_mCD16 cells in 50 μl NK-92 media were added and the reactions were incubated at 37° C. for 6h. 33.3 μl CytoTox-Glo (Promega, G9290) was added to each reaction […].

[4] = target: T1, human Claudin18.2; assay: Cellular ELISA on L929-Claudin 18.2 cells; assay type: binding; set-up: expressed in transfected cells; host or cells: L929, infected with pLVX-IRES-puro lentivirus, puromycin-selected monoclonal line; cells were formaldehyde-fixed for the cellular ELISA
Description: Human Claudin18.2 is a four transmembrane protein and has a complex structure. Cellular ELISA was thus carried out to maintain the structure of Claudin18.2. The stable cell line L929-Claudin 18.2 constructed in Example 1 were used for detection. Specifically, L929-Claudin 18.2 adherent cells were detached by 2 mM EDTA treatment. The cells were resuspended and adjusted to 2×10^5/mL and 100 μL of the resuspension was plated into 96 well plate and incubated overnight at 37° C. The next day, the media was removed, and the plate was washed with PBS once. 100 μL/well 4% formaldehyde was added to the plate. After 30 min of incubation at room temperature, formaldehyde was removed, followed by washing twice with PBS. Blocking buffer (PBS containing 2% BSA) was then added to the plate at 100 μL/well, and incubated at 37° C. for 2 h. After removal of blocking buffer, 100 μL/well of serially diluted antibodies (starting from 1 μM, with 4-fold dilution, for a total of 11 concentrations) were added to the corresponding wells, which were incubated at 37° C. for 2h afterwards. The plate was washed with 250 μL PBST for 5 times, and was allowed to stand for 2 min each time. 100 μL/well of horseradish peroxidase labeled anti-Human IgG secondary antibody (HRP-anti-Human IgG, Jackson ImmunoResearch, 109-035-003) diluted 1:10000 in PBS (containing 2% BSA) was added to the plate. The plate was incubated at 37° C. for 1 h and washed with 250 μL PB ST 6 times, wherein the plate was allowed to stand for 2 min each time. 100 μL/well of TMB solution (Thermo, 34029) was added. The reactions were incubated at 37° C. for 20 min and stopped with 50 μL 2 mol/L H2504. The absorbance at 450 nm was read on a plate reader (MD, SpectraMax M2) and the results were subjected to curve fitting by Graphpad Prism.

[5] = tested on: HEK293T-Claudin 18.2 cells; assay: NK cell mediated ADCC on HEK293T-Claudin 18.2 cells (LDH); assay type: cell-based; settings: HEK293T-Claudin 18.2 target cells
Description: (§2) The steps were as follows: HEK293T-Claudin 18.2, L929-Claudin 18.2, KATOIII-Claudin 18.2 and NUGC-4 cells were harvested and centrifuged followed by adjustment of cell density. 1×10^4/well of cells were plated on a plate and incubated overnight. The medium was removed on the next day. NK92MI-CD16a cells (Huabo Biopharm) were centrifuged, resuspended in MEMA medium and adjusted to 1×10^6/mL, then 50 μL/well cells were added to the corresponding wells. […] For HEK293T-Claudin18.2, L929-Claudin18.2 and KATOIII-Claudin18.2 cells, ten antibody concentrations were tested, starting from 40 μg/mL with 5-fold dilution. For NUGC-4 cells, eleven antibody concentrations were tested, starting from 2 mg/mL with 5-fold dilution. 50 μL/well of the diluted antibodies were added to the corresponding wells and the reactions were left to stand in incubator at 37° C., 5% CO2 and incubated for 5.5h. Lysis buffer was then added to the positive control well and incubated for another 0.5h. 50 μL/well of Lactate Dehydrogenase (LDH) detection agent (DOJINDO LABORATORISE, CK12) were added to the wells and the absorbance at 490 nm were taken every 10 min on a plate reader (MD, SpectraMax M2). The results were imported into Graphpad Prism for curve fitting.
The cell used was HEK293T-Claudin 18.2. The ADCC activity of antibody 2C6.9-hz21 on HEK293T-Claudin 18.2 is stronger than that of IMAB362.

[6] = tested on: NUGC-4 cells; assay: NK cell mediated ADCC on NUGC-4 cells (LDH); assay type: cell-based, human; settings: NUGC-4 target cells, NK92MI-CD16a effector cells
Description: as §2

[7] = Pharmacokinetics in SCID mice; assay type: in vivo; settings: 10 mg/kg intravenously
Description: Blood samples were taken 8 h, 1 d, 3 d, 8 d and 15 d after injection and serum antibody concentrations were determined by Cellular ELISA as described in Example 8. […] The data of mouse serum was subjected to curve fitting.

Substance: IMAB362: Zolbetuximab (IMAB362) developed by Astellas, human-mouse chimeric IgG1 antibody targeting Claudin 18.2; control antibody, sequences from CN 101312989 B [reference compound]
- OD450 (Max signal value) [1]: Not detected
- NUGC-4 cells tested positive for Claudin 18.2 [2]: 20%
- ADCC EC50 [3]: 0.351* μg/mL
- Max killing rate [3]: 54.17* %
- Max Signal Value (OD450) ([4]; Table 8 experiment): 0.82 OD450
- Max Signal Value (OD450) ([4]; Table 9 experiment): 0.53 OD450
- Max. Cytotoxicity ([5]; NK92MI-CD16a effector cells, Table 13): 55%
- Max Cytotoxicity ([5]; Table 14 experiment): 20%
- Max. Cytotoxicity [6]: 35%
- AUC [7]: 7391.22 µg·h/mL
